Laboratory results: article PMC7466704, “A Peptide-Based Nanocarrier for an Enhanced Delivery and Targeting of Flurbiprofen into the Brain for the Treatment of Alzheimer’s Disease: An In Vitro Study” (Nanomaterials, 2020)
Where “and” joins values, the source holds several entries; their conditions need not be identical. Equal values may be shown once. Where a SMILES comes first, the peptide text is derived from it. The star is where a group is joined. X1 = CC(C(=O)*)c1ccc(-c2ccccc2)c(F)c1

How the values were obtained:
bEnd.3 cells = assay: LDH release assay (loss of cell membrane integrity); type: cell-based, mouse; conditions: 25 to 400 µM, 24 and 48 h, absorbance 492 nm, n = 6
Procedure: Immortalised brain endothelial cells, bEnd.3 (passages 15–20), were cultured, according to the (manufacture ATCC) product sheet, in a Dulbecco’s modified eagle’s medium (DMEM) high glucose medium with L-pyruvate, containing 10% (v/v) foetal bovine serum (FBS) and 1% (v/v) of 500 U/mL Penicillin/Streptomycin (Gibco, Gaithersburg, MD, USA). Cells were seeded at a density of 5 × 10^4 cells per cm^2 in 24-well plates, which were incubated at 37 °C and 5% CO2 with replacement of the culture media every 3 days.
(§1) The lactate dehydrogenase (LDH) assay provides an indication of loss of cell membrane integrity and was measured using a Promega CytoTox96® nonradioactive cytotoxicity assay kit (Southampton, UK) after 24 and 48 h of treatment. Absorption was read spectrophotometrically at 492 nm and converted to a percentage of the total LDH released from the positive control (untreated cells with complete lysis).

[1] = test system: brain endothelial cells (bEnd.3); assay: Hoechst 33342/propidium iodide (HPI) staining, cell death assessment; type: cell-based, mouse; conditions: 100, 300 and 400 µM, 24 h, n = 6
Source text: For cell death assessment, Hoechst 33342 and propidium iodide (PI) salt (HPI) was used (Sigma-Aldrich, Gillingham, UK). These intracellular dyes stain cells in which the Hoechst 33342 binds to DNA, so it is staining the nuclei, whereas PI stains […], resulting in emission of light observed under a fluorescent microscopy. Live cells appear blue with intact membranes on microscopic examination, and those at early and late apoptotic phases appear bright blue with shrinkage. On the other hand, necrotic or damaged cells appear red with ruptured membranes.
HPI dye was prepared by adding 900 µL of DMEM to a mixture solution of 50 µL of 1mg/mL Hoechst 33342 and 50 µL of 2 μg/mL PI in a glass vial. After 24 h of treatment and incubation, which were performed as previously discussed, an epi fluorescent microscopy (Olympus microscope equipped with a Nikon D1X camera, UK) was used to identify and count the cells with distinct morphologies. Cell counts for healthy (living), apoptotic, or necrotic cells were obtained from the same treatment in duplicate wells and from three different fields for each well. Counting of the cells was measured according to their appearance then averaged and expressed as a percent of the total cell number.

bEnd.3 monolayer = assay: Penetration across in vitro BBB model (bEnd.3 monolayer on transwell); type: in vitro ADME, mouse; conditions: for Increase of percentage permeated relative to free FP: 200 µM; for Percentage permeated across in vitro BBB model (% of applied concentration): bEnd.3 monolayer on 12-transwell inserts, 200 µM in FBS-free, phenol-free culture media, HPLC C18, UV 248 nm
Procedure: The lyophilised powders of both AEP-K-FP and the free drug (FP) were dissolved in the FBS-free, phenol-free culture media in a concentration of 200 µM. Quantitative analysis of penetration for the free-drug and drug-attached delivery system was undertaken using HPLC (Agilent technology, Stockport, UK). The analysis was carried out using a hydrophobic C18 column (150 × 4.6 mm) at 25 °C and 20 μL of injection volume. The flow rate used was 0.6 mL/min, while the UV-detection wavelength was 248 nm, which is the λmax of FP [9]. The HPLC mobile phase solvents consisted of water/acetonitrile in which the gradient of eluent was run from 75:25 to 25:75 water: acetonitrile over 20 min. The standard curve for each molecule was obtained to calculate the percentage of the amount that transported across the in vitro BBB model.
To establish an in vitro BBB model, bEnd.3 cells were seeded on microporous membrane of 12-transwell inserts with complete culture media in a routine manner. Trans-endothelial electrical resistance (TEER) between apical and basolateral chambers was measured using an Evom voltometer (Sarasota, FL, USA) to determine the day of maximum values indicating tight junction formation, as previously described.

[2] = Hydrolysis and drug release in acidic lysosome-mimicking buffer; type: physicochemical; conditions: phthalate buffer pH 4.5; 200 µM; static, 24 h, 37 °C; HPLC
Procedure: The AEP-K-FP was analysed for the hydrolysis of the amide linkage that coupled the drug molecules to the peptide carrier as well as its amino acids residues. This hydrolysis of the complex was evaluated in an acidic solution mimicking the lysosomal pH conditions that are likely to be found in an inflamed tissue such as that of AD-affected brain tissue. The acidic buffer solution was prepared using a phthalate solution, according to manufacturer’s instructions (Thomas Scientific, Swedesboro, NJ, USA), to obtain a final pH of 4.5. The AEP-K-FP was dissolved in this buffer solution at a concentration of 200 µM and incubated at static conditions for 24 h, 37 °C. Samples were collected and analysed by HPLC.

HUVEC = assay: LDH release assay (loss of cell membrane integrity); type: cell-based, human; conditions: 25 to 400 µM, 24 and 48 h, absorbance 492 nm, n = 6
Procedure: The synthesised AEP-K-FP was also tested on human umbilical vein endothelial cells (HUVECs) (ATCC- Manassas, VA, USA) (passages 35 to 39). HUVECs were routinely cultured in an endothelial basal medium (F-12K) containing 0.05 mg/mL of endothelial cell growth supplement (ECGS), 0.1 mg/mL of heparin (Gibco Gaithersburg, MD, USA) and adjusted to a final concentration of 10% v/v of FBS (according to the manufacturer’s recommendations).
as §1

[3] = test system: γ-secretase in C6 glial cells; assay: Quantification of γ-secretase enzyme by sandwich ELISA in treated cells; type: cell-based; conditions: 200 µM in F-12K, 4 h, cell lysate supernatant, 6 readings, untreated control 28.43 ± 8.32
Procedure: C6 glial cells (ATCC-) (passages less than 20) were seeded using the complete growth medium, which was made according to the ATCC product sheet by addition of FBS to a final concentration of 2.5% v/v and horse serum (Gibco Gaithersburg, MD, USA) to a final concentration of 15% v/v to F-12K medium. Experiments were performed when cells reached confluence.
The investigation is based on sandwich enzyme-linked immunosorbent assay (ELISA) technology using a γ-secretase enzyme kit (Abbexa Ltd., Cambridge, UK). After confluence, C6 glial cells were treated with 200 µM FP or AEP-K-FP / F-12K solution. Wells containing untreated C6 cells were also included as a control. After 4 h of incubation, cells were washed and lysed to be centrifuged, and the supernatant was collected for assaying the γ-secretase activity immediately, according to kit instructions. Data were expressed as pg/mL, following kit instructions.

γ-secretase = test system: γ-secretase; parameters: method as in PMID 20009055, PMID 18450517; conditions: at target brain tissue; cited from earlier work
[4] = parameters: method as in PMID 7736686; conditions: cited from earlier work

Row | SMILES | LDH release, % of positive control (complete lysis) (bEnd.3 cells) | Apoptotic cells, % of total cell number (HPI staining) [1] [%] | Healthy cells, % of total cell number (HPI staining) [1] [%] | Necrotic cells, % of total cell number (HPI staining) [1] [%] | Increase of percentage permeated relative to free FP (bEnd.3 monolayer; bEnd.3 BBB model, 1 h) | Increase of percentage permeated relative to free FP (bEnd.3 monolayer; bEnd.3 BBB model, 4 h) [times] | Percentage permeated across in vitro BBB model (% of applied concentration) (bEnd.3 monolayer; 1 h) [%] | Percentage permeated across in vitro BBB model (% of applied concentration) (bEnd.3 monolayer; 4 h) [%] | Percentage of hydrolysed FP out of the total amount of AEP-K-FP [2] [%] | LDH release, % of positive control (complete lysis) (HUVEC) | γ-secretase enzyme amount, Mean ± SD [3] | Penetration, % of initial payload concentration (bEnd.3 monolayer; bEnd.3 BBB model, time not stated at this place (discussion)) | Required therapeutic concentration for significant pharmacological effect on γ-secretase activity (γ-secretase) | Biological half-life [4] [h] | Time to full excretion from the body [4] [h]
1 | CC(C)C[C@H](NC(=O)[C@H](CC(C)C)NC(=O)[C@H](CCCNC(=N)N)NC(=O)[C@H](CCCCN)NC(=O)[C@H](CCCNC(=N)N)NC(=O)[C@H](CC(C)C)NC(=O)[C@H](CCCCN)NC(=O)[C@H](CCCNC(=N)N)NC(=O)[C@H](CC(C)C)NC(=O)[C@H](CCCCNC(=O)C(C)c1ccc(-c2ccccc2)c(F)c1)NC(=O)C(C)c1ccc(-c2ccccc2)c(F)c1)C(=O)N[C@@H](CCCNC(=N)N)C(=O)O (stereo partly drawn) [AEP-K-FP] (X1-K(X1)LRKLRKRLLR-OH; N-terminus and C-terminus assumed) | less than 50% | ≤ 4.7 | ≥ 91 | ≤ 3.4 | more than 6 times | 4 | 16.3 | 35.9 | 69.2 | less than 50% | 14.6 pg/mL and 14.60 ± 3.51 pg/mL |  |  |  | 
2 | CC(C(=O)O)c1ccc(-c2ccccc2)c(F)c1 (stereo not drawn) [FP, Flurbiprofen] |  |  |  |  |  |  | ≤ 2.7 | ≤ 8.5 |  |  | 8.2 pg/mL and 8.20 ± 3.80 pg/mL | less than 9% | 150−250 μM | 4 | ≤ 24
